In patent US20240159744A1, “COLON CANCER DIAGNOSIS OR DETECTION COMPOSITION FOR PREDICTING RESPONSE TO DRUG, AND COMPOSITION FOR PREVENTING OR TREATING COLON CANCER” (priority 2020, published 2024):

System: HCT-15 tumor-bearing mice
Assay: In-vivo and ex-vivo fluorescence imaging of EGF-Cy5.5, C-probe, EGF-probe
Protocol: The biodistribution of the EGF-probe intravenously administered to mice having HCT-15, HT29, Lovo or HCT-8 tumors was evaluated. First of all, 6-week-old Balb/c-nude mice (Nara-Biotec, Gyeonggi-do, Korea) were prepared and each cell was subcutaneously inoculated into the nude mice at the right flank at a concentration of 2×10^6 cells/mouse to generate tumors. […] At 24 hours after the administration of the EGF-probe, the mouse was imaged using an IVIS fluorescence imaging system. […] IVIS fluorescence imaging was conducted at 24 hours after the administration. Major organs and tumors were obtained and imaged with an IVIS imaging system. The fluorescence intensity of the organs and tumors was analyzed using the Living Image 2.50 software. […] The tumor tissue sections were counter-stained with DAPI and visualized with a confocal microscope.

B1: EGF-Cy5.5 (conjugate, UniProt P01133 23-1207, looked up)
Pro-epidermal growth factor: PQHWSCPEGTLAGNGNSTCVGPAPFLIFSHGNSIFRIDTEGTNYEQLVVDAGVSVIMDFHYNEKRIYWVDLERQLLQRVFLNGSRQERVCNIEKNVSGMAINWINEEVIWSNQQEGIITVTDMKGNNSHILLSALKYPANVAVDPVERFIFWSSEVAGSLYRADLDGVGVKALLETSEKITAVSLDVLDKRLFWIQYNREGSNSLICSCDYDGGSVHISKHPTQHNLFAMSLFGDRIFYSTWKMKTIWIANKHTGKDMVRINLHSSFVPLGELKVVHPLAQPKAEDDTWEPEQKLCKLRKGNCSSTVCGQDLQSHLCMCAEGYALSRDRKYCEDVNECAFWNHGCTLGCKNTPGSYYCTCPVGFVLLPDGKRCHQLVSCPRNVSECSHDCVLTSEGPLCFCPEGSVLERDGKTCSGCSSPDNGGCSQLCVPLSPVSWECDCFPGYDLQLDEKSCAASGPQPFLLFANSQDIRHMHFDGTDYGTLLSQQMGMVYALDHDPVENKIYFAHTALKWIERANMDGSQRERLIEEGVDVPEGLAVDWIGRRFYWTDRGKSLIGRSDLNGKRSKIITKENISQPRGIAVHPMAKRLFWTDTGINPRIESSSLQGLGRLVIASSDLIWPSGITIDFLTDKLYWCDAKQSVIEMANLDGSKRRRLTQNDVGHPFAVAVFEDYVWFSDWAMPSVMRVNKRTGKDRVRLQGSMLKPSSLVVVHPLAKPGADPCLYQNGGCEHICKKRLGTAWCSCREGFMKASDGKTCLALDGHQLLAGGEVDLKNQVTPLDILSKTRVSEDNITESQHMLVAEIMVSDQDDCAPVGCSMYARCISEGEDATCQCLKGFAGDGKLCSDIDECEMGVPVCPPASSKCINTEGGYVCRCSEGYQGDGIHCLDIDECQLGEHSCGENASCTNTEGGYTCMCAGRLSEPGLICPDSTPPPHLREDDHHYSVRNSDSECPLSHDGYCLHDGVCMYIEALDKYACNCVVGYIGERCQYRDLKWWELRHAGHGQQQKVIVVAVCVVVLVMLLLLSLWGAHYYRTQKLLSKNPKNPYEESSRDVRSRRPADTEDGMSSCPQPWFVVIKEHQDLKNGGQPVAGEDGQAADGSMQPTSWRQEPQLCGMGTEQGCWIPVSSDKGSCPQVMERSFHMPSYGTQTLEGGVEKPHSLLSANPLWQQRALDPPHQMELTQ
modifications: Pro-epidermal growth factor Cy5.5 dye label
5 mg/kg intravenous, 24 hours, IVIS
  in-vivo fluorescence imaging (tumor and background signals): strong fluorescence signal at the tumor site but nonspecific background signals were observed throughout the body
cryosections, confocal
  fluorescence of tumor tissue sections: observed clearly
